Results published in patent publication US20110086770A1 (ANAPHORE, published 2011).

T1: recombinant human IL-23R/Fc chimera (R&D Systems) (human, UniProt Q5VWK5 24-353)
T1 construct: bought; also called human IL-23R/Fc fusion protein; rhIL23RFc
T1 sequence (looked up): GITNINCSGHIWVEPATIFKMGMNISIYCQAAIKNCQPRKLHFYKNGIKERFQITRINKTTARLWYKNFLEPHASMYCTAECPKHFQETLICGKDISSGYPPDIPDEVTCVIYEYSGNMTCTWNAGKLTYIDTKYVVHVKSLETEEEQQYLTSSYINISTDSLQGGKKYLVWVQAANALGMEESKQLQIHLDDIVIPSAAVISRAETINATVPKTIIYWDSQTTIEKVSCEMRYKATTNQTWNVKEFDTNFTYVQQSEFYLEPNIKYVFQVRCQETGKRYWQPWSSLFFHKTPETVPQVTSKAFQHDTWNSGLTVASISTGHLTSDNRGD

T2: recombinant human IL-12Rβ2/Fc fusion protein (R&D Systems) (human, UniProt Q99665 24-622, limits assumed)
T2 construct: bought; also called Il12Rb2
T2 sequence (looked up): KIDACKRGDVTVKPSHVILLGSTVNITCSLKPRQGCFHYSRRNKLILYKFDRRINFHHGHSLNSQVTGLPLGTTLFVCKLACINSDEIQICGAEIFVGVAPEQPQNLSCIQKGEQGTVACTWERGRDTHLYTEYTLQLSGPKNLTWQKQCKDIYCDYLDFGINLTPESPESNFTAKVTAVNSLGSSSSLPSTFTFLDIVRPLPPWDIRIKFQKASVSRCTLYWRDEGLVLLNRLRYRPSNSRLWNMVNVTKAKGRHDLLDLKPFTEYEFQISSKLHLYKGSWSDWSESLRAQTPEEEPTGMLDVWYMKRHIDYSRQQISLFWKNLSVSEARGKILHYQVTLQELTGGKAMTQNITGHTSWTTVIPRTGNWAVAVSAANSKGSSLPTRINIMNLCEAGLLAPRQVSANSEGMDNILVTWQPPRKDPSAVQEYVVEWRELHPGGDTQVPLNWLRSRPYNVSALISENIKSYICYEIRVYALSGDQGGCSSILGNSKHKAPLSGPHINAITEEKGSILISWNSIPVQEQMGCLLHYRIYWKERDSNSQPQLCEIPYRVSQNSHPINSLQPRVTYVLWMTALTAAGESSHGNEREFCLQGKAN

B1: 014-42.3D11 ATRIMER (designed binder)
chain: EPPTQKPKKIVNAKKDVVNTKMFEELKSRLDTLAQEVALLKEQQALQTVCLKGTKVHMKCFLAFTQTKTFHEASEDCISRGGTLSTPQTGSENDALYEYLRQSVGNEAEIWLGLNGWLEGAGWVDMTGARIAYKNWETEITAQPDGGWHWRWENCAVLSGAANGKWFDKRCRDQLPYICQFGIV
modifications: Homotrimer (ATRIMER) of this chain; one protomer is given.
notes: not shown: C-terminal tag (His/Myc of pANA4, HA-StrepII of pANA10, or that of pANA19)
B2: A9E ATRIMER (designed binder)
chain: EPPTQKPKKIVNAKKDVVNTKMFEELKSRLDTLAQEVALLKEQQALQTVCLKGTKVHMKCFLAFTQTKTFHEASEDCISRGGTLSTPQTGSENDALYEYLRQSVGNEAEIWLGLNGSALTNTWVDMTGARIAYKNWETEITAQPDGGLGYWGENCAVLSGAANGKWFDKRCRDQLPYICQFGIV
B3: 4G8 ATRIMER (designed binder)
chain: EPPTQKPKKIVNAKKDVVNTKMFEELKSRLDTLAQEVALLKEQQALQTVCLKGTKVHMKCFLAFTQTKTFHEASEDCISRGGTLSTPQTGSENDALYEYLRQSVGNEAEIWLGLNGSRRSGVWVDMTGARIAYKNWETEITAQPDGGFGVFGENCAVLSGAANGKWFDKRCRDQLPYICQFGIV
modifications: Forms a homotrimer through the tetranectin coiled coil; one protomer is given.
notes: made in E. coli; also called 001-69.4G8; ATRIMER complex 4G8
B4: 101-51-1A4 ATRIMER (designed binder)
chain: EPPTQKPKKIVNAKKDVVNTKMFEELKSRLDTLAQEVALLKEQQALQTVCLKGTKVHMKCFLAFTQTKTFHEASEDCISRGGTLSTPQTGSENDALYEYLRQSVGNEAEIWLGLNGSALTNTWVDMTGARIAYKNWERPALVQPRGGFGVFGENCAVLSGAANGKWFDKRCRDQLPYICQFGIV
notes: also called ATRIMER complex 1A4
B5: 101-51-1A7 ATRIMER (designed binder)
chain: EPPTQKPKKIVNAKKDVVNTKMFEELKSRLDTLAQEVALLKEQQALQTVCLKGTKVHMKCFLAFTQTKTFHEASEDCISRGGTLSTPQTGSENDALYEYLRQSVGNEAEIWLGLNGSALTNTWVDMTGARIAYKNWERPPLYQPGGGWGVFGENCAVLSGAANGKWFDKRCRDQLPYICQFGIV
B6: 101-113-6C108 ATRIMER (designed binder)
chain: EPPTQKPKKIVNAKKDVVNTKMFEELKSRLDTLAQEVALLKEQQALQTVCLKGTKVHMKCFLAFTQTKTFHEASEDCISRGGTLSTPQTGSENDALYEYLRQSVGNEAEIWLGLNGSALTNTWVDMTGARIAYKNWEPPPPHHPMGGFGVFGENCAVLSGAANGKWFDKRCRDQLPYICQFGIV

Assays:
[1] = molecular target: recombinant human DR 4 receptor Fc fusion protein (R&D Systems) (human); experiment: SPR (Biacore), captured DR4/Fc
[2] = molecular target: T1, recombinant human IL-23R/Fc chimera …; experiment: competition ELISA against IL-23
Description: Assays were performed generally as follows. Individual wells in Immulon HB2 plates were incubated overnight at 4° C. with 100 μL PBS containing 100 ng of an anti-human IgG Fc (R&D MAB 110 clone 97924). Plates were washed five times with PBS/0.05% Tween 20, and wells were incubated for 1.5 h at RT with 100 μL each of PBS containing 50 ng of recombinant human IL-23R/Fc. […] Competitor was included at a final concentration of 1 μg/mL. After incubation, plates were washed as described and wells were incubated for 40 min at RT with 100 μL each of PBS containing a 1:5000 dilution of streptavidin-HRP conjugate (Pierce catalog no. 21130). After washing, wells were incubated with 100 μL each of TMB (BioFX Lab catalog no. TMBH-1000-0) for up to 30 min at RT. Reactions were stopped with an equal volume of 0.2 M sulfuric acid.
A number of ATRIMER™ polypeptide complexes were tested in competition ELISA more extensively to determine IC50 values.

[3] = molecular target: T1, recombinant human IL-23R/Fc chimera …; experiment: SPR (Biacore), captured IL-23R/Fc, ATRIMER
Description: A Biacore 3000 biosensor (GE Healthcare) was used to evaluate the interaction of human IL-23R and receptor binders. Immobilization of an anti-human IgG Fc antibody (GE Heathcare) to the CM5 chip (Biacore) was performed using standard amine coupling chemistry, and this modified surface was used to capture a recombinant human IL-23R/Fc fusion protein (R&D Systems). A low-density receptor surface, less than 200 RU, was used for all of the analyses. ATRIMER™ polypeptide complex dilutions (1-500 nM) were injected over the IL-23R surface at 30 μl/min and kinetic constants were derived from the sensorgram data using the Biaevaluation software (version 3.1, GE Healthcare). Data collection was 3 minutes for the association and 5 minutes for dissociation. The anti-human IgG surface was regenerated with a 30 s pulse of 3M magnesium chloride. All sensorgrams were double-referenced against an activated and blocked flow-cell as well as buffer injections.

[4] = molecular target: T1, recombinant human IL-23R/Fc chimera …; experiment: competition ELISA against IL-23; remark: listed apart in the source
[5] = molecular target: T2, recombinant human IL-12Rβ2/Fc fusion …; experiment: Biacore, IL-12Rβ2/Fc captured
Description: (§1) A Biacore 3000 biosensor (GE Healthcare) was used to evaluate the interaction of human IL-12Rβ1/Fc or IL-12Rβ2/Fc with IL-23R binding ATRIMER™ complexes. Immobilization of an anti-human IgG Fc antibody (GE Healthcare) to the CM5 chip (GE Healthcare) was performed using standard amine coupling chemistry, and this modified surface was used to capture recombinant human IL-12Rβ1/Fc or IL-12Rβ2/Fc fusion protein (R&D Systems). A low-density receptor surface, less than 200 RU, was used for all of the analyses. ATRIMER™ complex dilutions (100 nM) were injected over the IL-12R surface at 30 μl/min. Data collection was 3 minutes for the association and 5 minutes for dissociation. The anti-human IgG surface was regenerated with a 30 s pulse of 3M magnesium chloride. All sensorgrams were double-referenced against an anti-human IgG Fc antibody surface as well as buffer injections.

[6] = molecular target: T3, recombinant human IL-12Rβ1/Fc fusion protein (R&D Systems) (human, UniProt P42701 24-540, limits assumed); experiment: Biacore, IL-12Rβ1/Fc captured
T3 construct: bought; also called Il12Rb1
Description: as §1

Sequence of recombinant human DR 4 receptor Fc fusion protein (R&D Systems) (human) (chain, as listed by the source): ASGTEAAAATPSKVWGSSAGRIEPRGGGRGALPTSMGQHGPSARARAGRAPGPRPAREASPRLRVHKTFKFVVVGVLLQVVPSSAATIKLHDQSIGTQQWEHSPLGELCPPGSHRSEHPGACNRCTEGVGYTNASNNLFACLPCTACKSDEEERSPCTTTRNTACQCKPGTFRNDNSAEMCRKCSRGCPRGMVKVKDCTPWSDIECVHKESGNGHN

Binder | Ka [1] [M⁻¹] | Kd [1] [nM] | koff [1] [s⁻¹] | kon [1] [M⁻¹ s⁻¹] | IC50 [2] [nM] | Ka [3] [M⁻¹] | Kd [3] [nM] | koff [3] [s⁻¹] | kon [3] [M⁻¹ s⁻¹] | Ratio IC50 to 056-53.H4E IC50 [4] [ratio] | binding result [5] | binding result [6]
B1 | 2.53e+07 | 39.5 | 0.000526 | 13300 | – | – | – | – | – | – | – | –
B2 | – | – | – | – | 2.6 | 5.21e+08 | 1.92 | 0.00033 | 172000 | – | – | –
B3 | – | – | – | – | 1.4 | 1.35e+08 | 7.42 | 0.000805 | 109000 | – | – | –
B4 | – | – | – | – | – | 2.58e+09 | 0.388 | 0.000395 | 1.02e+06 | 1 | no binding (tested: 100 nM) | no binding (tested: 100 nM)
B5 | – | – | – | – | – | 2.24e+09 | 0.447 | 0.000187 | 419000 | 1 | no binding (tested: 100 nM) | no binding (tested: 100 nM)
B6 | – | – | – | – | – | 1.63e+09 | 0.613 | 0.000382 | 623000 | 0.9 | no binding (tested: 100 nM) | no binding (tested: 100 nM)
